Measured values from US20220324988A1.

Target: human CD40 expressed on cells (human) (UniProt P25942)
Assay: cell-based or functional assay

Chain of human CD40 expressed on cells (human) (P25942 21-277): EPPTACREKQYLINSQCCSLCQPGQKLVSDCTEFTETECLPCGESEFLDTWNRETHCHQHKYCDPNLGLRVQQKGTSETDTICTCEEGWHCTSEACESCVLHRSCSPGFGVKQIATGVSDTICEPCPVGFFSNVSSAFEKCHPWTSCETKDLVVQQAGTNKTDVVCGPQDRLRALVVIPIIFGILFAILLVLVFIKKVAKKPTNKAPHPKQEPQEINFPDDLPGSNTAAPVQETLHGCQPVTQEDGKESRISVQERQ

Question: For “CD40L (positive control, produced in 293F cells) (ligand)”, which GFP positive rate for Jurkat/NF-kB-GFP+hCD40 single clones after CD40L stimulation (100 nM) is on record?
Answer: 94.7%
